Eight molecules from US20250388664A1 (BIOARCTIC, published 2025) can be followed below.

Test [1] concerns the target T1, hTfR1 (recombinant, construct not specified) (human, UniProt P02786 89-760, limits assumed).
T1 construct: also called biotinylated hTfR1
Kind of test: SPR (Biacore 8K), single-cycle kinetics, hTfR1 captured through its N-terminal DYKDDDDK tag, scFv injected in 5 steps (3-fold, from 700 or 400 nM). The method, then:
Binding to hTfR1 of six different purified scFv variants from Example 24 was evaluated by surface plasmon resonance (SPR) using Biacore 8K (Cytiva). 30 μg/ml of […] Tag mAb FG4R (Thermo Fisher Scientific, MA1-91878) in 10 mM acetate buffer, pH 4.5 was immobilized on a CM5 sensor chip (Cytiva, #BR100399) using the amine coupling kit type 2 (Cytiva, #BR100633) according to the manufacturer's instruction, resulting in immobilization levels of approximately 10000 RU. hTfR1 was captured via an N-terminal […] tag. To this end, the receptor was injected over the chip with a contact time of 60 s at a flow rate of 10 μl/min. […] Interaction was measured using the single cycle kinetics method with a contact time of 120 s at a flow rate of 30 μl/min followed by a dissociation time of 600 s. Regeneration of the surface between cycles was done by injecting 10 mM glycine-HCl pH 1.7 with a contact time of 30 s and a flow rate of 30 μl/min. The binding modules were diluted in HBS-EP+ (Cytiva, #BR100669). Experiments were performed at 25° C.

The target in a further test is T2, Aβ1-40 monomer (UniProt P05067 672-711).
T2 construct: range 1-40 (Aβ numbering)
T2 sequence (P05067 672-711): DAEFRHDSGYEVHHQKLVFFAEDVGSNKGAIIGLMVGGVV
Kind of test: inhibition ELISA, antigen titrated in solution, AβpE3-40 coat.

For test [2], the target named is T3, AβpE3-42 protofibrils (UniProt P05067 674-713, pyroglutamate at position 3 (N-terminal residue)).
T3 construct: range 3-42 (Aβ numbering); Soluble aggregates made from AβpE3-42 peptide, purified in the void peak of SEC; also called AβpE3-42 PF
T3 sequence (P05067 674-713): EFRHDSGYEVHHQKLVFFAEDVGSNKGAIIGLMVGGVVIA
Described as above.

Test [3] deals with T4, AβpE3-40 monomer (UniProt P05067 674-711, pyroglutamate at position 3 (N-terminal residue)).
T4 construct: range 3-40 (Aβ numbering); Synthetic peptide (Bachem/Anaspec), verified monomeric by SEC; also called monomeric AβpE3-40
T4 sequence (P05067 674-711): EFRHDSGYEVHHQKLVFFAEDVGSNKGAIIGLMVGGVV
Described as above.

For a further test, the target named is T5, Aβ1-42 protofibrils (UniProt P05067 672-713).
T5 construct: range 1-42 (Aβ numbering); Soluble aggregates made from Aβ1-42 monomer
T5 sequence (P05067 672-713): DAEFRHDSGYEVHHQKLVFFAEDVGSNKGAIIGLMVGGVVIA
The test is described as above.

The target of test [4] is T4, AβpE3-40 monomer. Description: SPR, antibody immobilised, monomer injected, 1:1 fit. The method, then:
Single cycle kinetics with the antibodies immobilized on a CM5 chip was used to measure the binding of the antibodies to the AβpE3-40 monomer. For the measurements, 5 μg/ml of analyte antibody was immobilized on the chip. […] Regeneration of the surface between cycles was done by injecting 30 μl 3 M MgCl₂. The binding data was fitted to a 1:1 interaction model.
(§1) In all SPR experiments, 1×HBS-EP+ (Cytiva, cat. no. BR100669) was used to dilute antibodies and target antigens. Experiments were performed at 25° C.
(§2) Affinity evaluation and KD determination by surface plasmon resonance: Binding interactions between antigens and antibodies were evaluated by SPR using a Biacore 8K instrument (Cytiva) according to standard procedures.

Test [5] addresses T3, AβpE3-42 protofibrils. Description: SPR, protofibrils immobilised, antibody injected, 1:1 fit, apparent; binding to AβpE3-42 protofibrils; KD in pM. The method, then: (§3) Single cycle kinetics was also used to measure binding of the antibodies to AβpE3-42 protofibrils. […] Regeneration of the surface between cycles was done by injecting 30 μl 10 mM glycine-HCl pH 1.7. The binding data was fitted to a 1:1 interaction model.
as §1, §2

Test [6] concerns the target T3, AβpE3-42 protofibrils. Description: SPR, protofibrils immobilised, antibody injected, 1:1 fit, apparent. The method, then: as §3, §1, §2

T1 sequence (P02786 89-760 limits assumed): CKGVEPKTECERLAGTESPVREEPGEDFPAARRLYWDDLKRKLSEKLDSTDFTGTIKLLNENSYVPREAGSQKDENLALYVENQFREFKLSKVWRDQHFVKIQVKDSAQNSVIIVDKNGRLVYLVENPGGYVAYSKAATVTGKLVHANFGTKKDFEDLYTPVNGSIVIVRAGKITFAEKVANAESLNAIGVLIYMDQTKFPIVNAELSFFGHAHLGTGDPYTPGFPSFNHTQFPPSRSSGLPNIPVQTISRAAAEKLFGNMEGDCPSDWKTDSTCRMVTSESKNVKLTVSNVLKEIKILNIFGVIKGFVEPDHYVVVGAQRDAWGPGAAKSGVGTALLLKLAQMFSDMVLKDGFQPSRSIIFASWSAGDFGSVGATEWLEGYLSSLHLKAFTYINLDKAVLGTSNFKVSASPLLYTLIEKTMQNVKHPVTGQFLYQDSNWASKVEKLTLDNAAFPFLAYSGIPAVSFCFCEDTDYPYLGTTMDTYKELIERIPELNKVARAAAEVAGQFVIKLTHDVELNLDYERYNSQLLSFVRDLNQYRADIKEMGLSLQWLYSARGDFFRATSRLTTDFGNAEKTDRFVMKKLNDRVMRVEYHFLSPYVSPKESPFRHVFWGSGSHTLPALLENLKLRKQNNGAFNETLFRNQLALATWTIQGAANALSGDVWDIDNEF

B1: h26D3-HC6, VL-first (scFv)
scFv: DIQMTQSPSSVSASVGDRVTITCKSSQSLLYSTNQKNYLAWYQQKPGKAPKLLIYWASTRESGVPSRFSGSGSGTDFTLTISSLQPEDFATYYCQQYFIYPRTFGQGTKVEIKGGGGSGGGGSGGGGSEVQLVQSGAEVKKPGSSVKVSCKASGYIFTDYNMDWVRQAPGQGLEWIGDINPDADTTSYNEKFKGRATLTVDKSTSTAYMELSSLRSEDTAVYYCARGGYSGSSYYHPMDYWGQGTLVTVSS
For the molecule B1, the binding result in test [1] is “binds”.

B2: H2L7-K12V/R71A/R83T (antibody, human IgG1, kappa)
heavy: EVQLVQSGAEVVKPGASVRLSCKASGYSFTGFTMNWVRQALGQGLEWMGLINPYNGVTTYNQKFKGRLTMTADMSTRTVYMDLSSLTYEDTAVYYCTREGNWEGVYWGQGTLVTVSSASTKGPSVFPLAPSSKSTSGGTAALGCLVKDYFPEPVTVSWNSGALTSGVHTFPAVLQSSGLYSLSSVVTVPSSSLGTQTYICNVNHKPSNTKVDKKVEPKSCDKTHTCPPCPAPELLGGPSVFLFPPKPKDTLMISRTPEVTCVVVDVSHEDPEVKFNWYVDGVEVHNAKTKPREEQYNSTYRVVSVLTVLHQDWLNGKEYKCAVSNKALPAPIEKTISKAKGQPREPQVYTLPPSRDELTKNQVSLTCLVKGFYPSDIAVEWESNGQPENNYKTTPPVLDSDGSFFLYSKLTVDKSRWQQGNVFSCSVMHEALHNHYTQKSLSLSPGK
light: EIVLTQSPLSLSVTLGQSASISCRSSQSLLDSNGKTYLHWFILRPGQSPRRLIYLVSILDSGVPDRFSGSGSGTDFTLKISRVEAEDVGVYYCVQGTHFPFTFGSGTKLEIKRTVAAPSVFIFPPSDEQLKSGTASVVCLLNNFYPREAKVQWKVDNALQSGNSQESVTEQDSKDSTYSLSSTLTLSKADYEKHKVYACEVTHQGLSSPVTKSFNRGEC
notes: VH variant of H2L7; VL and constant domains identical to H2L7
With B2, the IC50 with Aβ1-40 monomer is greater than 500 nM; with AβpE3-42 protofibrils [2] it was 4.9 nM; with AβpE3-40 monomer [3], 2.29 nM; in the test with Aβ1-42 protofibrils, greater than 132 nM. The Kd stood at 4.04 nM with AβpE3-40 monomer [4] and 0.427 nM in the test with AβpE3-42 protofibrils [5]. The koff was found to be 0.000234 s⁻¹ in the test with AβpE3-40 monomer [4] and 2.45e-05 s⁻¹ with AβpE3-42 protofibrils [6]. For the same molecule, the values for the kon in the test with AβpE3-40 monomer [4] and with AβpE3-42 protofibrils [6] were 58700 M⁻¹ s⁻¹ and 57600 M⁻¹ s⁻¹, respectively.

B3: H2L7-R71A/R83T (antibody, human IgG1, kappa)
heavy: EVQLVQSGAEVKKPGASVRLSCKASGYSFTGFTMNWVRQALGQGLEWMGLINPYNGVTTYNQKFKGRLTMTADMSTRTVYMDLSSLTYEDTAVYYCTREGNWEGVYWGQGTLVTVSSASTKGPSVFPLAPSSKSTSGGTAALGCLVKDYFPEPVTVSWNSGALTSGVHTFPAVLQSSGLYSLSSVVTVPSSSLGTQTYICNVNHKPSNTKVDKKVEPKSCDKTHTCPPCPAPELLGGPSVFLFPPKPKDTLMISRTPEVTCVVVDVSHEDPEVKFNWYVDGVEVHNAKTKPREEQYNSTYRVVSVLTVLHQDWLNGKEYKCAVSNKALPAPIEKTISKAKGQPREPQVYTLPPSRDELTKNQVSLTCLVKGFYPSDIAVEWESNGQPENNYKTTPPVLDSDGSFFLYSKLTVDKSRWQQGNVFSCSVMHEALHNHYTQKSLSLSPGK
light: EIVLTQSPLSLSVTLGQSASISCRSSQSLLDSNGKTYLHWFILRPGQSPRRLIYLVSILDSGVPDRFSGSGSGTDFTLKISRVEAEDVGVYYCVQGTHFPFTFGSGTKLEIKRTVAAPSVFIFPPSDEQLKSGTASVVCLLNNFYPREAKVQWKVDNALQSGNSQESVTEQDSKDSTYSLSSTLTLSKADYEKHKVYACEVTHQGLSSPVTKSFNRGEC
notes: as for B2
For the molecule B3, the IC50 was greater than 500 nM with Aβ1-40 monomer, 5.44 nM with AβpE3-42 protofibrils [2], 2.77 nM with AβpE3-40 monomer [3] and greater than 132 nM in the test with Aβ1-42 protofibrils. For the same molecule, the Kd with AβpE3-40 monomer [4] worked out at 4.72 nM; with AβpE3-42 protofibrils [5], 0.471 nM. Moreover, the koff in the test with AβpE3-40 monomer [4] turned out to be 0.000235 s⁻¹; in the test with AβpE3-42 protofibrils [6] it was 2.73e-05 s⁻¹. Moreover, the association rate constant (kon) with AβpE3-40 monomer [4] stood at 50900 M⁻¹ s⁻¹; with AβpE3-42 protofibrils [6], 57400 M⁻¹ s⁻¹.

B4: H2L7-R71A (antibody, human IgG1, kappa)
heavy: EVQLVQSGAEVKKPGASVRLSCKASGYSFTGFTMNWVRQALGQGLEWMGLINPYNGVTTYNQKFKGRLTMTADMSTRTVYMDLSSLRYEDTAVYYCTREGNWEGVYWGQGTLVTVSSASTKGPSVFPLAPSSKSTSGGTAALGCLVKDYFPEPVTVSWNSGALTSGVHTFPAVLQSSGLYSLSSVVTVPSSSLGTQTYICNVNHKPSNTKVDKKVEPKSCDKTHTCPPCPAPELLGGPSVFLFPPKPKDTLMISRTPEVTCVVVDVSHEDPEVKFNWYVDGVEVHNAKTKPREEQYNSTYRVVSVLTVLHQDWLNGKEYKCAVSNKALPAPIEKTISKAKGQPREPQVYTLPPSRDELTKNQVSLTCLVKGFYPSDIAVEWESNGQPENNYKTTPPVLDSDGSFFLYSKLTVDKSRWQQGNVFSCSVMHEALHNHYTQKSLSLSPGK
light: EIVLTQSPLSLSVTLGQSASISCRSSQSLLDSNGKTYLHWFILRPGQSPRRLIYLVSILDSGVPDRFSGSGSGTDFTLKISRVEAEDVGVYYCVQGTHFPFTFGSGTKLEIKRTVAAPSVFIFPPSDEQLKSGTASVVCLLNNFYPREAKVQWKVDNALQSGNSQESVTEQDSKDSTYSLSSTLTLSKADYEKHKVYACEVTHQGLSSPVTKSFNRGEC
notes: as for B2
For B4, the 50% inhibitory concentration (IC50) is greater than 500 nM in the test with Aβ1-40 monomer, 4.59 nM with AβpE3-42 protofibrils [2], 2.54 nM in the test with AβpE3-40 monomer [3] and greater than 132 nM with Aβ1-42 protofibrils. Further, the Kd with AβpE3-40 monomer [4] amounted to 4.62 nM; with AβpE3-42 protofibrils [5], 0.376 nM. The results for the koff with AβpE3-40 monomer [4] and with AβpE3-42 protofibrils [6] were 0.000225 s⁻¹ and 2.54e-05 s⁻¹, respectively. For the same molecule, the kon stood at 50100 M⁻¹ s⁻¹ in the test with AβpE3-40 monomer [4] and 67700 M⁻¹ s⁻¹ with AβpE3-42 protofibrils [6].

B5: h26D3-HC6 (scFv)
scFv: EVQLVQSGAEVKKPGSSVKVSCKASGYIFTDYNMDWVRQAPGQGLEWIGDINPDADTTSYNEKFKGRATLTVDKSTSTAYMELSSLRSEDTAVYYCARGGYSGSSYYHPMDYWGQGTLVTVSSGGGGSGGGGSGGGGSDIQMTQSPSSVSASVGDRVTITCKSSQSLLYSTNQKNYLAWYQQKPGKAPKLLIYWASTRESGVPSRFSGSGSGTDFTLTISSLQPEDFATYYCQQYFIYPRTFGQGTKVEIK
notes: also called scFv h26D3-HC6
Take B5: the binding result in test [1] was “binds”.

B6: h26D3-HC6_DS (scFv)
scFv: EVQLVQSGAEVKKPGSSVKVSCKASGYIFTDYNMDWVRQAPGQCLEWIGDINPDADTTSYNEKFKGRATLTVDKSTSTAYMELSSLRSEDTAVYYCARGGYSGSSYYHPMDYWGQGTLVTVSSGGGGSGGGGSGGGGSDIQMTQSPSSVSASVGDRVTITCKSSQSLLYSTNQKNYLAWYQQKPGKAPKLLIYWASTRESGVPSRFSGSGSGTDFTLTISSLQPEDFATYYCQQYFIYPRTFGCGTKVEIK
Consider B6, for which the binding result in test [1] is reported as “binds”.

B7: h26D3-LC1 (scFv)
scFv: EVQLVQSGAEVKKPGSSVKVSCKASGYIFTDYNMDWVRQAPGQGLEWIGDINPDYDTTSYNEKFKGRATLTVDKSTSTAYMELSSLRSEDTAVYYCARGGYSGSSYYHPMDYWGQGTLVTVSSGGGGSGGGGSGGGGSDIQMTQSPSSVSASVGDRVTITCKSSQSLLASTNQKNYLAWYQQKPGKAPKLLIYWASTRESGVPSRFSGSGSGTDFTLTISSLQPEDFATYYCQQYFIYPRTFGQGTKVEIK
Take B7: the binding result in test [1] was “binds”.

B8: h26D3-LC1_DS, VL-first (scFv)
scFv: DIQMTQSPSSVSASVGDRVTITCKSSQSLLASTNQKNYLAWYQQKPGKAPKLLIYWASTRESGVPSRFSGSGSGTDFTLTISSLQPEDFATYYCQQYFIYPRTFGCGTKVEIKGGGGSGGGGSGGGGSGGGGSEVQLVQSGAEVKKPGSSVKVSCKASGYIFTDYNMDWVRQAPGQCLEWIGDINPDYDTTSYNEKFKGRATLTVDKSTSTAYMELSSLRSEDTAVYYCARGGYSGSSYYHPMDYWGQGTLVTVSS
For the molecule B8, the binding result in test [1] is “binds”.
